Source: PMC8835667, “The KRAB Domain of ZNF10 Guides the Identification of Specific Amino Acids That Transform the Ancestral KRAB-A-Related Domain Present in Human PRDM9 into a Canonical Modern KRAB-A Domain” (International Journal of Molecular Sciences, 2022)

Target: tripartite motif containing 28 (TRIM28) (human (endogenous in HeLa), UniProt Q13263 1-835)
Assay: cell-based or functional assay

tripartite motif containing 28 (TRIM28), sequence (Q13263 whole entry): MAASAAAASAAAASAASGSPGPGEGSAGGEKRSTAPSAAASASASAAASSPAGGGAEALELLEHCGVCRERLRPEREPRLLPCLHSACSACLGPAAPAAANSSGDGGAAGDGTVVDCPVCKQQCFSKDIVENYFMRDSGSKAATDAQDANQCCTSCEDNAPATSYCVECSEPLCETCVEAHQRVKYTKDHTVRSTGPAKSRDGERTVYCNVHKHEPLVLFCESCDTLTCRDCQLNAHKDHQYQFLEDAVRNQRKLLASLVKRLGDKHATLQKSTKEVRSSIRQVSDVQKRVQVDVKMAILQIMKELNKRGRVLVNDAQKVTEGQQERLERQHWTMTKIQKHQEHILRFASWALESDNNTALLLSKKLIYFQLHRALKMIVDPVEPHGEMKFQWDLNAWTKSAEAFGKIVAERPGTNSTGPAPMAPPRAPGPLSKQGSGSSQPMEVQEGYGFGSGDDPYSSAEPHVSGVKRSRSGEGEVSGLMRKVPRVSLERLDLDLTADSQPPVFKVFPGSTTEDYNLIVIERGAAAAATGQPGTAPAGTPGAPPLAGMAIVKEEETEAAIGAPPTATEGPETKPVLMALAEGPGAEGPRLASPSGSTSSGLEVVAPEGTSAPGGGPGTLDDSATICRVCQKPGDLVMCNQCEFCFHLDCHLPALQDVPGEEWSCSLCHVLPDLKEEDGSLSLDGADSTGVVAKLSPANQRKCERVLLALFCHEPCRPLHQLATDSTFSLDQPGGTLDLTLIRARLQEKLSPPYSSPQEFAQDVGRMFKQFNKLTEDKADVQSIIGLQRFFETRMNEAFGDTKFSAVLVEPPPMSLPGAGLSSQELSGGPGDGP

| Binder | transcriptional repression factor over Gal4-DBD alone, dual luciferase reporter assay in HeLa cells (KRAB domain as Gal4-DBD fusion) [fold] |
| --- | --- |
| GST-ZNF10-AB fusion protein (domain or fragment) not shown | ~19 |
| GST-PRDM9-A/24-97 (domain or fragment, human, UniProt Q9NQV7 24-97, looked up) VKDAFKDISIYFTKEEWAEMGDWEKTRYRNVKRNYNALITIGLRATRPAFMCHRRQAIKLQVDDTEDSDEEWTP | 1.3 |
